Source: patent US20230002478A1 (TWIST BIOSCIENCE, published 2023)
Like-named read-outs stand apart in the source and are kept apart here.

How the values were obtained:
SARS-CoV-2 S1 [1] = biological target: T1, SARS-CoV-2 S1 (SARS-CoV-2, UniProt P0DTC2 16-685); test: SPR
T1 construct: range 16-685

SARS-CoV-2 S1 [2] = biological target: T1, SARS-CoV-2 S1; test: SPR; remark: listed apart in the source
[3] = biological target: T2, S1 domain of SARS-CoV S protein (SARS-CoV, UniProt P59594 14-667); test: SPR
T2 construct: domain: S1

[4] = biological target: T2, S1 domain of SARS-CoV S protein; test: cross-binding assay on the S1 domain of SARS-CoV S protein

B1: 6-42 (Fc fusion)
chain: EVQLVESGGGLVQPGGSLRLSCAASGDTYGSYWMGWFRQAPGKEREFVAVITSGGSTNYADSVKGRFTISADNSKNTAYLQMNSLKPEDTAVYYCTHVQNSYYYAMDVWGQGTLVTVSS
- binding result (SARS-CoV-2 S1 [1]): binds

B2: 2-2 (antibody, V domains shown)
VH: EVQLLESGGGLVQPGGSLRLSCAASGFTFSRHAMNWVRQAPGKGLEWVSGISGSGDETYYADSVKGRFTISRDNSKNTLYLQMNSLRAEDTAVYYCARDLPASYYDSSGYYWHNGMDVWGQGTLVTVSS
VL: DIQMTQSPSSLSASVGDRVTITCRASQTINTYLNWYQQKPGKAPKLLIYSASTLQSGVPSRFSGSGSGTDFTLTISSLQPEDFATYYCQQSYSTFTFGQGTKVEIK
- Kd (SARS-CoV-2 S1 [1]): 21 nM

B3: 6-3 (Fc fusion)
chain: EVQLVESGGGLVQPGGSLRLSCAASGFTFSPSWMGWFRQAPGKEREFVATINEYGGRNYADSVKGRFTISADNSKNTAYLQMNSLKPEDTAVYYCARVDRDFDYWGQGTLVTVSS
- Kd (SARS-CoV-2 S1 [1]): 32 nM
- Kd (SARS-CoV-2 S1 [2]): 11 nM
- binding result [3]: no binding

B4: 6-63 (Fc fusion)
chain: EVQLVESGGGLVQPGGSLRLSCAASGQTFNMGWFRQAPGKEREFVAAIGSGGSTSYADSVKGRFTISADNSKNTAYLQMNSLKPEDTAVYYCWRLGNDYFDYWGQGTLVTVSS
- Kd (SARS-CoV-2 S1 [1]): 46 nM
- Kd (SARS-CoV-2 S1 [2]): 65 nM
- binding result [3]: no binding

B5: 5-1 (Fc fusion)
chain: EVQLVESGGGLVQPGGSLRLSCAASGGTFSSIGMGWFRQAPGKEREFVAAISWDGGATAYADSVKGRFTISADNSKNTAYLQMNSLKPEDTAVYYCAKEDVGKPFDWGQGTLVTVSS
- Kd (SARS-CoV-2 S1 [1]): 6.6 nM

B6: 2-5 (antibody, V domains shown)
VH: EVQLLESGGGLVQPGGSLRLSCAASGFTFSDFAMAWVRQAPGKGLEWVSAISGSGDITYYADSVKGRFTISRDNSKNTLYLQMNSLRAEDTAVYYCAREADGLHSPWHFDLWGQGTLVTVSS
VL: DIQMTQSPSSLSASVGDRVTITCRASQSIHTYLNWYQQKPGKAPKLLIYAASALASGVPSRFSGSGSGTDFTLTISSLQPEDFATYYCQQSYSAPPYTFGQGTKVEIK
- binding result [4]: binds
